system: Escherichia coli TOP10; experiment: shrunken log2 fold change of peptide-encoding DNA abundance (4.5 h post-induction vs induction); higher = less antimicrobial activity (less host growth inhibition); conditions: time post-induction: 4.5 h; library: site-saturation at positions 5, 18, 19, 20
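Note: peptides expressed intracellularly from a pBAD plasmid library in pooled LB shake-flask culture, induced with 0.3% L-arabinose, DNA abundance read by NGS, three biological replicates, DESeq2 with apeglm shrinkage.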

Sequence	shrunken log2 fold change
RRIRRRPPRLPRPRPRPPWTPRP	0.443
RRIRSRPPRLPRPRPRPWEVPRP	0.188
RRIRVRPPRLPRPRPRPLGIPRP	-0.105
RRIRVRPPRLPRPRPRPKKKPRP	-0.356
RRIRTRPPRLPRPRPRPFFHPRP	-0.158
RRIRGRPPRLPRPRPRPRHIPRP	0.192
RRIRMRPPRLPRPRPRPQGAPRP	0.124
RRIRKRPPRLPRPRPRPKWRPRP	0.887
RRIRQRPPRLPRPRPRPNCHPRP	-0.548
RRIRKRPPRLPRPRPRPYQKPRP	-0.00762
RRIRLRPPRLPRPRPRPGLYPRP	-0.476
RRIRKRPPRLPRPRPRPGTQPRP	0.114
RRIRHRPPRLPRPRPRPTCAPRP	0.242
RRIRWRPPRLPRPRPRPLRMPRP	0.531
RRIRFRPPRLPRPRPRPEAYPRP	-0.0029
RRIRLRPPRLPRPRPRPKTEPRP	0.14
RRIRKRPPRLPRPRPRPHLGPRP	-0.00957
RRIRQRPPRLPRPRPRPFAEPRP	-0.00183
RRIRMRPPRLPRPRPRPKPKPRP	0.476
RRIRNRPPRLPRPRPRPDDYPRP	0.00129

Sequence	shrunken log2 fold change
RRIRARPPRLPRPRPRPTDKPRP	0.391
RRIRIRPPRLPRPRPRPGYYPRP	-0.708
RRIRRRPPRLPRPRPRPCLIPRP	-0.38
RRIRQRPPRLPRPRPRPYHAPRP	-0.052
RRIRCRPPRLPRPRPRPGGGPRP	0.76
RRIRTRPPRLPRPRPRPQERPRP	0.00298
RRIRIRPPRLPRPRPRPDAFPRP	-0.15
RRIRVRPPRLPRPRPRPPLDPRP	0.433
RRIRERPPRLPRPRPRPAGKPRP	-0.0958
RRIRKRPPRLPRPRPRPPKRPRP	1.15
RRIRERPPRLPRPRPRPTKYPRP	-0.568
RRIRQRPPRLPRPRPRPEQKPRP	0.039
RRIRCRPPRLPRPRPRPEPWPRP	0.634
RRIRARPPRLPRPRPRPGSDPRP	0.536
RRIRQRPPRLPRPRPRPRSPPRP	0.0984
RRIRNRPPRLPRPRPRPDHCPRP	0.0463
RRIRLRPPRLPRPRPRPLQGPRP	-0.0384
RRIRPRPPRLPRPRPRPSMCPRP	-0.0117
RRIRCRPPRLPRPRPRPMAYPRP	-0.00456
RRIRWRPPRLPRPRPRPMIKPRP	-0.353

Sequence	shrunken log2 fold change
RRIRYRPPRLPRPRPRPNHAPRP	-0.142
RRIRSRPPRLPRPRPRPGEFPRP	-0.181
RRIRDRPPRLPRPRPRPFWMPRP	0.0871
RRIRCRPPRLPRPRPRPCHIPRP	-0.0941
RRIRARPPRLPRPRPRPKVRPRP	0.047
RRIRMRPPRLPRPRPRPWLDPRP	0.0568
RRIRPRPPRLPRPRPRPQSDPRP	0.0199
RRIRMRPPRLPRPRPRPNNNPRP	-0.134
RRIRTRPPRLPRPRPRPDMSPRP	-0.0305
RRIRGRPPRLPRPRPRPPNPPRP	0.74
RRIRIRPPRLPRPRPRPVYIPRP	-0.154
RRIRHRPPRLPRPRPRPQAIPRP	-0.119
RRIRNRPPRLPRPRPRPDTRPRP	-0.111
RRIRERPPRLPRPRPRPAIRPRP	-0.0312
RRIRGRPPRLPRPRPRPQSKPRP	0.348
RRIRERPPRLPRPRPRPSWDPRP	-0.247
RRIRQRPPRLPRPRPRPIQFPRP	-0.282
RRIRTRPPRLPRPRPRPWWLPRP	0.125
RRIRFRPPRLPRPRPRPSHSPRP	-0.171
RRIRTRPPRLPRPRPRPFDHPRP	-0.301
